{
  "source": "the DeepSol protein solubility set",
  "data": [
    {"assay": "soluble on expression in E. coli; label from the status in PepcDB or PDB records", "values": [
      {"sequence": "MSFSDHFSAVAASYAKARPRYPQRWFRYLARIVPDRQRVWDCATGNGQAAIALAEYFSEVIGSDASAAQVRQARSHPRVQYLVFPAEATPLAPASLDLITVAQAAHWFDLPQFYIEAQRLLRPGGVIALWGYGLGSLNPAIDHVFNHFYRDWLDPYWPPERQWVEQAYEGLSFPFEPLPTPTFSMQCDWTLFDLLAYLRTWSGVQQFQRQRGFDPVWAIAPELQRVWGDPQRYRRITWPLFAKVGRWQPDRVRLEHHHHHH", "soluble on expression in E. coli": "not soluble"},
      {"sequence": "MSFSESRHNENCLIQEGALLFCEQAVVAPVSGDLVFRPLKIEVLSKLLAFIDGAGLVDTTYAESDKWVLLSPEFRAIWQDRKRCEYWFLQQIITPSPAFNKVLALLRKSESYWLVGYLLAQSTSGNTMRMLGEDYGVSYTHFRRLCSRALGGKAKSELRNWRMAQSLLNSVEGHENITQLAVNHGYSSPSHFSSEIKELIGVSPRKLSNIIQLADK", "soluble on expression in E. coli": "not soluble"},
      {"sequence": "MSFVVIIPARYASTRLPGKPLVDINGKPMIVHVLERARESGAERIIVATDHEDVARAVEAAGGEVCMTRADHQSGTERLAEVVEKCAFSDDTVIVNVQGDEPMIPATIIRQVADNLAQRQVGMATLAVPIHNAEEAFNPNAVKVVLDAEGYALYFSRATIPWDRDRFAEGLETVGDNFLRHLGIYGYRAGFIRRYVNWQPSPLEHIEMLEQLRVLWYGEKIHVAVAQEVPGTGVDTPEDLERVRAEMRGSHHHHHH", "soluble on expression in E. coli": "soluble"},
      {"sequence": "MSFWRVFLFGLFLTPPAAACDLALALAVDVSGSVDEGEYRTQMDGLAHALRDPVVSEALVRAEAQLMLVQWTGSDRQRVTIPWTQASSFDALDRFADRVAADPRIWRNYSTAIGEALEVTMAAFAQVPDCARHLIDVSGDGPSNEGIEPLAVHRDLRALGITVNAIAIEQSEPDLTAYFYENVIVGEGAFVETANGFADYPARIRKKLLREVTQQTAALDLEHHHHHH", "soluble on expression in E. coli": "not soluble"},
      {"sequence": "MSGAAAASAAGYDRHITIFSPEGRLYQVEYAFKATNQTNINSLAVRGKDCTVVISQKKVPDKLLDPTTVSYIFCISRTIGMVVNGPIPDARNAALRAKAEAAEFRYKYGYDMPCDVLAKRMANLSQIYTQRAYMRPLGVILTFVSVDEELGPSIYKTDPAGYYVGYKATATGPKQQEITTNLENHFKKSKIDHINEESWEKVVEFAITHMIDALGTEFSKNDLEVGVATKDKFFTLSAENIEERLVAIAEQD", "soluble on expression in E. coli": "soluble"},
      {"sequence": "MSGARRDNRRSNGRDDSSRVAKAENDRKPGRENRGGDEKRGNSNNAARSGGGGGGNRGGAERGIAPAQQPYDNNGGHRSGGGGGRSGGGGTSFNGAAFTESQLMDEVPKKKFTGRCRLFVGNLPNEVKETELKELFSPHGDIAECYLSGKGFAFLRLDTRAHAESAKEAIDGRIIHGRQVRVRFAVHGAAIRVKELSPTVSNEMLYHAFSHFGDVERAVHIVDEKGRPTGEGIVEFERKPNCNEAMAAIRDKVFLLTASPKPLICEVLEPRDEDDGLAERMIPRTPGLSKERELGPRFPTPNSFEYVYGMKWKELYVVEQKRRAQLDEELRESRRRLESDMELAYQDYQAQMLREDLQRRQQELERLEAARRERMRGLGGPPPGMPGGVPPQAQPFNPHGGSMFGGPGGPGGPPPFGQPFQQAPQGMFNVPTGPPPLMGGGGDPRGPPGGMGGPPGHGGMGGPPGHGGQGGPPGHGGMGGPPPGQGGPGVRETWRSWRNASKSHGRSNMIEGVQRLLQIFKSDNGPPGGMPGRDYPPQQGPGGMFGSYGDGGYPPEKKQRR", "soluble on expression in E. coli": "not soluble"},
      {"sequence": "MSGELSNRFQGGKAFGLLKARQERRLAEINREFLCDQKYSDEENLPEKLTAFKEKYMEFDLNNEGEIDLMSLKRMMEKLGVPKTHLEMKKMISEVTGGVSDTISYRDFVNMMLGKRSAVLKLVMMFEGKANESSPKPVGPPPERDIASLP", "soluble on expression in E. coli": "soluble"},
      {"sequence": "MSGINARPTNSIFSNLCQIFSSLQGCLKTQTPFSDGLFSLKSPYRSIRKHRRIIMEVTISAIINGEFADQYGKRGSQFNENGMLI", "soluble on expression in E. coli": "not soluble"},
      {"sequence": "MSGKRISREKLTIKKMIDLYQAKCPQASAEPEHYEALFVYAQKRLDKCVFGEEKPACKQCPVHCYQPAKREEMKQIMRWAGPRMLWRHPILTVRHLIDDKRPVPELPEKYRPKKPRE", "soluble on expression in E. coli": "not soluble"},
      {"sequence": "MSGLEAKIAAIRDPDLQAELEAARGGFLFAPIVEHLLFRQRERDAARAQEGAQAEAREAMGRDRRRRDAVREVIESEPTGPENLQHLHSVLALCGLPYRDPGDARDFVREYGRNSLSLSAGRLKNPITGEMELQGLPYGPKARLVLLHLCTEAVRQRSPTIEVADSLSGFMKAMGFAVTGGERGTIGAFKEQLNRLAACSMQLGLWDGEGQASTLNVPPFRQLELWRRGDDGLVWQRTVSFHQDFYDSLIRHALPVDIRAARAFSGSARKLDLLFWTGYRLRALQRPLRLTWDNLHRQFGAENASLRSFRQAFKADLAGLLEVFPRLRIDLDEGGMLLHPADPGSLLVPPKLEHHHHHH", "soluble on expression in E. coli": "not soluble"},
      {"sequence": "MSGNGVKKVAEVAAKAGKAIDWEGMAKMLVSDEARKEFNTLRRTFEDVNHQLQTKFSQEPQPIDWEYYRKGIGSKVVDMYKEAYERTSCFVNPNVNAFCGTVICSEMHVLLCDLVNRSEDTKHEINAGIEIPKYVDTVTPQYKPKFDALLVELKEAEKESLKESERIEKELAELQEMKKNISTMTADEYFAKHPEVKQKFDDEIRNDNWGY", "soluble on expression in E. coli": "soluble"},
      {"sequence": "MSGSIARCETWPFPLHFSLLLLLLDFPACGNKGGLVIFIAHKFSMLRLSMHRASLPLWVGARLLSSTAVLRLEQSAEERTREEELRQRVQQKYRGMQIPEMTHHEYGHFSTTGISASAAHQAARSAGVEGYPGFGGGAFQNRGRVDWLLLLTGCTLVYLSFKILFRQFTRGVNGLELPLWTASIELQAKHILFAVQFQQSEQDQIKKDFEAVRQTNPFVDFFEWVRSRRPEFCCGRKYGADYVMHTLVSCLRSGDGTQLATLARTLQQSMTRKNGDSLQRVDDFVEQLQSAGYLFQGIRGVGSSGVHTPEHSPQPIYTPLREVSQCGVQESDLINALDVKNGEAHSSTPFREAK", "soluble on expression in E. coli": "soluble"},
      {"sequence": "MSGSLEIPGLDDGLLPVETGYGLFQGTAKKRVVICNDNDKFRHSGPLPRALCGSFAAIGLLPLPVVETRPAPPPKVAPITPALQGKACGQAVFEGLRNKNAVETVDNLPALRQTARTGKRWKALESLMQETPAIIYKIVPETLWTAARAEGMFEGAAIDLTDGFIHFSTAKQVAETAARHFSGQVDLLLIAVDGAALGDKLVYEPSRGGDLFPHLYAPLPFSAVLWETPLSLDHDGQHQFPEILLEHHHHHH", "soluble on expression in E. coli": "not soluble"},
      {"sequence": "MSGTNRVAANLNMLFTNLPLLQRYGAAASAGFKLVEVSIPYTEPAEKLREAADEYHLKHTLINAPPGNWDDGFRGLASLKSAKKEFRKSLDTAIEYAKALGCCRVHVMAGIPKSDDDLENAHQTYSENVRFAAEKFKEHKLICLIEPINKYTIPGYHLNNYEDAMDVIQMDQSNNLKIQYDTFHAQQINGQIGAIMRKLKDYIGYIQVAQVPNRGACDTRGEIDYHFIFDEIRSINPSWVIGAEYLDAKPSFNWIENMSLSF", "soluble on expression in E. coli": "not soluble"},
      {"sequence": "MSGVASGKTAIKSTAKVLSFVVQKHWATRLHYDFRLELEGTMKSWAVPKGPSFDPNDKRMAVHVEDHPISYNSFEGEIPSGQYGAGKVIIWDKGTWIPLEDPHKGYRDGKLKFELRGLKLKGHWALVRMRKEENKKQEPWLLIKEKDEYVRSSREYSVVDEMPDSVAELEHHHHHH", "soluble on expression in E. coli": "not soluble"},
      {"sequence": "MSGVLNTVDQRTNLVGENRLELLLFTLNSRQLFAINVFKVKEVIKLPPLTKLPGSHYNIRGVASLRGEAVPVIDLRCSIGFPPLRGEAEEENLIVTEYNRSVQGFLVGPVRNIINTAWTEIQPPPSTSGRSNYLTAITQVKDGDTSQIVEIIDVEKVLAEIVHYDVTISEDILDHDLSQSMVGRN", "soluble on expression in E. coli": "not soluble"},
      {"sequence": "MSHFTQLKTKLTNRDCLVQALEDLKLQPHVFEQPQPLAGYYMDSQGYSAEIIIFGRTIKARADIGFRWNQSSGVYEVIHDEYETSPRLGEDFFSHKLMQTYGRRMVLAKTEELREKFGECTISEETKGQVQTLRLTFAGHQEVKQYARRLEHHHHHH", "soluble on expression in E. coli": "not soluble"},
      {"sequence": "MSHGSPAPSASVSSDGEEPEIDVMPSSDEESEPIYIPKEKEPVVIRGVGNITVFGMNSRFNTEYPPELTGYIAPEELSATLSRVNSVLKRHVQTSSRWLLCGLAFCCCSIGCSMWPVLCLNRRTVLALEKCLDHENVSLYHKLGLHWSLARRPTEPSDRLTEYVLELKTLPKPALNLPD", "soluble on expression in E. coli": "not soluble"},
      {"sequence": "MSICLIAEEGADSGALSSLAERWGLVSDPNAVMALVLTTERLELRKQDEPKLGAIFVDFVAGPMAHRRRFGGGRGEAVAKAVGIKKDYLPDVVDATAGLGRDAFVLAALGCHVRMVERNPVVAALLDDGLKRGYQDAEIGPWLRERLTLLHASSMTALRDITPPPDVVYLDPMFPHKQKSALVKKEMRVFQSLVGADDDADALLEPARALAKKRVVVKRPDYAPPLAGVPAQSMLETKSHRFDFYLPVLEHHHHHH", "soluble on expression in E. coli": "soluble"},
      {"sequence": "MSIEHHFLCPKKLLKLCNKKIDKDVIRNLQLLTEKFLSDIIHRSALLCKHKGKSTVDNTDIRFVIEKDFDYSFGTREIQGTTSLPTAEHLERMAEISRQNK", "soluble on expression in E. coli": "not soluble"},
      {"sequence": "MSIITRLFNNSDFEKLNQLCKLYDDLGYPTNENDLKKRLKKITNHDDYFLLLLIKENKIIGLSGMCKMMFYEKNAEYMRILAFVIHSEFRKKGYGKRLLADSEEFSKRLNCKAITLNSGNRNERLSAHKLYSDNGYVSNTSGFTKQL", "soluble on expression in E. coli": "soluble"},
      {"sequence": "MSIKVDMSLDCKGLACPMPIVKTKKAIEGLASGQVIEVKATDKGSTVDIKSWANKVGHQYIGTKHEGDILMHYVRKAHEHEVNEVVKYPHTITNTELEEILVSGEECTVLDVREAAEFAFGHIPSATSMPLGELESLVLDKTKQIYVVCRTGNRSDVACQMLKEKGYTNVKNVIPGMIEWQGNIENLEHHHHHH", "soluble on expression in E. coli": "soluble"},
      {"sequence": "MSILNDYKRKTEGSVFWAQRARSVMPDGVTADTRAFDPHGLFISDAQGVHKTDVDGNVYLDFFGGHGALVLGHGHPRVNAAIAEALSHGVQYAASHPLEVRWAERIVAAFPSIRKLRFTGSGTETTLLALRVARAFTGRRMILRFEGHYHGWHDFSASGYNSHFDGQPAPGVLPETTANTLLIRPDDIEGMREVFANHGSDIAAFIAEPVGSHFGVTPVSDSFLREGAELARQYGALFILDEVISGFRVGNHGMQALLDVQPDLTCLAKASAGGLPGGILGGREDVMGVLSRGSDRKVLHQGTFTGNPITAAAAIAAIDTILEDDVCAKINDLGQFAREAMNHLFARKGLNWLAYGRFSGFHLMPGLPPNTTDTGSITRAEVARPDVKMIAAMRMALILEGVDIGGRGSVFLSAQHEREHVEHLVTTFDRVLDRLADENLLSWQGTNLSGNQS", "soluble on expression in E. coli": "soluble"},
      {"sequence": "MSIRAEEISALIKQQIENYQSEIEVSDVGTVIQVGDGIARAHGLDNVMAGELVEFSNGVMGLAQNLEENNVGIIILGPYTEIREGDEVRRTGRIMQVPVGKELIGRVVNPLGQPVDGLGPINTTNTRPIESPAPGVMDRKSVHEPLQTGIKAIDALVPIGRGQRELIIGDRQTGKTAVALDTIINQKDEDMICIYVAIGQKESTVRNVVETLRKHGALEYTIVVTASASQPAPLLYLAPYAGVTMGEEFMYNGKHVLVVYDDLSKQAAAYRELSLLLRRPPGREAYPGDVFYLHSRLLERAAKLSDAKGGGSLTALPFIETQAGDVSAYIPTNVISITDGQIFLQSDLFFSGVRPAIDAGTSVSRVGGSAQIKAMSKVSGTLRLDLASYRELEAFAQFGSDLDKATQAKLNRGARTVEVLKQGLHKPLRVEKQVIILYALTRGFLDDIPVVDITRFEEEFHAWLDSNATDLLEEIRTTKKLADDDKFAAAINGFKKVFVASE", "soluble on expression in E. coli": "not soluble"},
      {"sequence": "MSITHQPANLTLAQIQQMIGGVMLLSQHSPLHRRYVVAEWLQRILPAFELNQFCYYEDEHGRPIAFCNWAFVSEQIRDELLSGVREISPSDWRSGQQIYIPEMIAPFGHGREVVNDLRRRVFLPWQGQKVCTVRGKVDAQNDRCIRKVQWFSI", "soluble on expression in E. coli": "not soluble"}
    ]}
  ]
}
